Test results taken from US8147817B2, “IL-33 in the treatment and diagnosis of diseases and disorders” (The Brigham and Women's Hospital, Inc., priority 2006, dated 2012).
“Also recorded” adds a separate entry of the source. Read-outs that look alike come from different tables or passages of the source.

Assays:
[1] = tested on: MAP kinases and Akt; test: Western analysis for MAP kinases and Akt in cardiomyocytes; format: cell-based, rat
Protocol: Phosphorylation of MAP kinases and Akt were detected by Western analysis as previously described (5). Membranes were incubated with primary antibodies overnight (phospho ERK1/2 diluted 1:1000; phospho SAPK/JNK diluted 1:500; phospho p38 MAPK diluted 1:500; phospho Akt (Ser473) diluted 1:1000). All antibodies were from Cell Signaling Technology, Inc. (Danvers, Mass.) and were sequentially detected with horseradish peroxidase-conjugated goat anti-rabbit IgG and enhanced chemiluminescence.
Western analyses were performed as described previously (45). Membranes were incubated with primary antibodies overnight (anti-p44/42MAPK diluted 1:500; phospho-p44/42MAPK (Thr202/Tyr204) 1:1000; phospho-JNK (Thr183/Tyr185) 1:500; p38MAPK 1:500; phospho-p38MAPK (Thr180/Tyr182) 1:500; phospho-Akt (Ser473) 1:1000 and phospho-IκBα 1:1000, all from Cell Signaling, anti-mouse ST2L, from R&D 1:1000 and anti-IL-33 as described above, 1:500) at 4° C., detected with horseradish peroxidase-conjugated antibodies and enhanced chemiluminescence.

[2] = tested on: WT and ST2−/− mice after TAC; conditions: for induction of ANP and BNP gene expression after TAC: left ventricle 1 week after operation;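 for all read-outs here: ST2−/− mice and WT littermates, 8-10 weeks old at the time of TAC surgery where applicable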
Protocol: Targeted ST2 ablated mice and their wild-type littermates were employed for the experiment simultaneously. TAC was produced as described previously (11-13) on 8-10 week old mice. Some mice underwent daily intraperitoneal (i.p.) injection of IL-33 (2 μg suspended in 100 microliters of PBS with 0.2% bovine serum albumin) or vehicle beginning from the day after TAC operation to the day of harvest.
Formalin-fixed, paraffin-embedded sections were prepared as previously described (42). For immunohistochemistry, the first antibodies used were anti-cleaved caspase-3 (Cell Signaling Technology) and anti-mac3 (BD Biosciences, San Jose, Calif.). For TUNEL analysis, the In Situ apoptosis detection kit (Chemicon, Temecula, Calif.) was used along with the manufacturer's protocol with some optimal modifications on the treatment periods.
Targeted ST2−/− mice and their WT littermates were employed for the experiments. TAC was produced as described previously (49, 50) on 8-10 week old mice. All operative procedures were performed by a single operator with over 20 years rodent cardiac surgery experience who was blinded to genotype and the randomized treatment assignment. Following the procedure, each mouse received daily i.p. injection of recombinant rat IL-33 (2 μg) or vehicle from the day after TAC operation until the day of harvest.
Echocardiographic acquisition and analysis were performed by an echocardiographer blinded to treatment group. […] All images were taken at a heart rate greater than 400 beats per minute to minimize effects of anesthesia, using a Sonos-4500 (Philips) and a 15-MHz transducer. Three consecutive cardiac cycles were averaged. Left ventricular mass was calculated by the M-mode method (51). Left ventricular fractional shortening was calculated as (EDD−ESD)/EDD×100%, where EDD is end-diastolic dimension and ESD is end-systolic dimension.
A planimetry image analysis program was used by an investigator blinded to treatment group to quantitate the 30 high power field regions randomly selected in each slice with Hematoxylin-eosin stain (for cross-sectional area) or Sirius-red stain (for fibrotic area). Cross sectional area of cardiomyocytes was measured as described previously (52). Fibrotic area was calculated as (red area/total area)×100%. The scores from all slices were averaged to calculate their respective values.

[3] = tested on: WT and ST2KO mice after MI; test: Experimental myocardial infarction with IL-33 treatment; format: in vivo, mouse; conditions: recombinant rat IL-33 intraperitoneal daily up to 4 weeks
From the text: 86 mice with wild-type (WT) or ST2 knockout (ST2KO) genotypes were randomized into 4 subgroups, Sham or MI operated, and with or without IL-33 treatment. Experimental myocardial infraction operation was done by permanent occlusion of the left anterior coronary artery via open-chest approach under deep anesthesia. IL-33 treatment was done by a single 2 microgram/kg on each day, intraperitoneal, of recombinant rat IL-33 protein, from the day of operation up to 4 weeks.
MI was produced on 8-10 week old mice.

[4] = tested on: NF-κB; test: NF-κB luciferase reporter assay in neonatal rat cardiomyocytes; format: cell-based; conditions: angiotensin-II with IL-33 co-treatment, n=3
Protocol: Neonatal rat cardiomyocytes were transfected using Lipofectamine Plus (Invitrogen) with a luciferase reporter plasmid for NF-κB and with β-galactosidase, as described previously (47). After 48 hours of transfection, cells were then stimulated for an additional 24 hours, lysed and treated with Dual-Light assay system (Applied Biosystems, Foster City, Calif.), and analyzed using a luminometer (PerkinElmer Waltham, Calif.).

[5] = target: T1, mouse ST2 (Mus musculus, UniProt P14719); test: Pull-down assay of recombinant IL-33 with mouse ST2-Fc protein; format: binding
T1 construct: purchased R&D
T1 sequence (P14719 27-337 isoform P14719-2 limits assumed): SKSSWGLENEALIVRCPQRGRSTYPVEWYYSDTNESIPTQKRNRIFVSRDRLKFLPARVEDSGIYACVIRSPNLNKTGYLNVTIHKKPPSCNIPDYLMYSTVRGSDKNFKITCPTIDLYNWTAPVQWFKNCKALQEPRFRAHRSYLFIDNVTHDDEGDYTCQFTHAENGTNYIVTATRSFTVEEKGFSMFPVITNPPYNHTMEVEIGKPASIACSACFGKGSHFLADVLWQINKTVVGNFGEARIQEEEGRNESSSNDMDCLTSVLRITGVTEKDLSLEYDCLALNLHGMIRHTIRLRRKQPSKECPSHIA
From the text: The GenBank™ accession number for rat IL-33 is BC081993. The rat IL-33 cDNA was subcloned into the expression vector pTrcHis-TOPO (Invitrogen), starting with amino acid 109 of the full-length protein with an N-terminal His tag. After sequencing, One-shot TOP10 bacteria (Invitrogen) were transformed and expression was induced with Isopropyl β-D-1-thiogalactopyranoside (Sigma). Four hours after induction, bacteria were harvested, and the pellet was resuspended in B-PER Bacterial Protein Extraction Reagent (Pierce) with EDTA-free protease inhibitor cocktail (Sigma). The lysate was purified with Ni-chelating affinity chromatography using a Ni-NTA Purification system (Invitrogen). Briefly, Ni NTA beads were washed twice after batch binding with 40 ml of 20 mM Imidazole, 300 mM NaCl, 50 mM potassium phosphate, pH 8.0. IL-33 was eluted with 10 ml of 250 mM Imidazole, 300 mM NaCl, 50 mM potassium phosphate, pH 8.0. IL-33 protein was further concentrated, dialyzed and purified by high-performance liquid chromatography (BioLogic DuoFlow System, Bio-Rad, Hercules, Calif.) using HiPrep sephacryl size exclusion column (GE Healthcare Bioscience, Piscataway, N.J.) with buffer containing 150 mM NaCl, 50 mM potassium phosphate, pH 7.2. Endotoxin level (<0.03 EU/μg protein) was determined by Limulus Amebocyte Lysate PYROGENT Ultra (Cambrex) as previously described (12). […]

[6] = ST2−/− mice, 4 weeks after operation
[7] = WT mice surviving 8 weeks after TAC
[8] = WT mice, IL-33 2 μg/day i.p. for 4 weeks

B1: IL-33: recombinant mature rat IL-33, starting with amino acid 109 of the full-length protein, N-terminal His tag (GenBank BC081993) (protein)
chain: SIQGTSLLTESCALSTYNDQSVSFVLENGCYVINVEDCGKNQEKDKVLLRYYESSFPAQSGDGVDGKKLMVNMSPIKDTDIWLNANDKDYSVELQKGDVSPPDQAFFVLHKKSSDFVSFECKNLPGTYIGVKDNQLALVEENDESCNNIMFKLSKM
modifications: left off: small tags and cut ends
[1]; IL-33 (10 ng/ml) alone
  phosphorylation of ERK, p38 and JNK MAP kinases: increased phosphorylation of ERK, p38 and JNK MAP kinases; also recorded: generally modest compared with IL-1β; also recorded: activated all MAP kinases
[1]; IL-33 alone
  Akt activation: minimally activated Akt
[1]; co-treatment with IL-33
  angiotensin-II-induced Akt activation: did not impair angiotensin-II-induced Akt activation
  angiotensin-II-induced ERK phosphorylation: did not affect ERK phosphorylation
  angiotensin-II-induced JNK phosphorylation: decreased
  angiotensin-II-induced p38MAPK phosphorylation: decreased
[2]; 4 weeks after operation
  percentage of TUNEL positive nuclei in myocardium: not changed; also recorded: did not affect TUNEL positivity
[2]; ST2−/− mice
  Gross Heart/Body Weight after TAC: not in ST2−/− mice
  induction of ANP and BNP gene expression after TAC: not in ST2−/− mice
[2]; ST2−/− mice, 1 week after operation
  NF-κB nuclear binding activity in left ventricular myocardium: not in ST2−/− mice; also recorded: modest increase in NF-κB binding
[2]; [6]
  hypertrophy by echocardiography after TAC: not in ST2−/− littermates
  increased left ventricular dilation and reduced fractional shortening after TAC: not reversed
[2]; WT mice
  Gross Heart/Body Weight after TAC: antihypertrophic effect of IL-33 in WT mice
  survival after TAC: significantly improved survival in WT mice after TAC; also recorded: improved pathological changes and survival in WT mice
  induction of ANP and BNP gene expression after TAC: markedly attenuated induction of both genes in WT; also recorded: effectively reversed the induction of these hypertrophic genes in WT mice with TAC; also recorded: reversed these changes only in WT mice
[2]; [7]
  fractional shortening (echocardiography): increased fractional shortening
  left ventricular wall thickness (echocardiography): reduced wall thickness
[2]; WT mice, 1 week after operation
  NF-κB nuclear binding activity in left ventricular myocardium after TAC: inhibited NF-κB induction only in WT mice; also recorded: reversed these changes only in WT mice
[2]; WT mice, 1 week, co-treatment with IL-33
  macrophage infiltration in myocardium after TAC: decreased by co-treatment with IL-33; also recorded: reduced macrophage infiltration after TAC only in WT mice
[2]; WT mice, 4 weeks after operation
  hypertrophy by echocardiography after TAC: reduced hypertrophy only in WT mice
[2]; [8]
  cardiac fibrosis (Sirius-red) after TAC: reduced cardiac fibrosis; also recorded: significantly improved these changes in WT mice
  cardiomyocyte hypertrophy (cross-sectional area) after TAC: reduced cardiac fibrosis and cardiomyocyte hypertrophy; also recorded: significantly improved these changes in WT mice
[2]; WT or ST2−/− mice without TAC, 1 week of treatment
  macrophage infiltration in myocardium, IL-33 alone: did not significantly increase macrophage infiltration; also recorded: not observed; also recorded: did not induce macrophage infiltration
[2]; no TAC
  echocardiographic parameters under non-stress conditions: no significant change
[3]; ST2KO mice
  survival after infarction: eliminates this benefit
[3]; WT mice
  survival after infarction: improves survival after infarction
[4]
  increase of NF-κB promoter activity: 8+/−12%
[5]
  binding to mouse ST2 (pulldown with ST2-Fc chimera protein): bound to the mouse ST2 protein
[5]; listed as recombinant IL-33
  binding to mouse ST2 (pulldown with ST2-Fc chimera protein): exhibits specific binding to mouse ST2
